Test system: purified wild-type Gα13 pre-loaded with GDP
Sequence (chain, as listed by the source): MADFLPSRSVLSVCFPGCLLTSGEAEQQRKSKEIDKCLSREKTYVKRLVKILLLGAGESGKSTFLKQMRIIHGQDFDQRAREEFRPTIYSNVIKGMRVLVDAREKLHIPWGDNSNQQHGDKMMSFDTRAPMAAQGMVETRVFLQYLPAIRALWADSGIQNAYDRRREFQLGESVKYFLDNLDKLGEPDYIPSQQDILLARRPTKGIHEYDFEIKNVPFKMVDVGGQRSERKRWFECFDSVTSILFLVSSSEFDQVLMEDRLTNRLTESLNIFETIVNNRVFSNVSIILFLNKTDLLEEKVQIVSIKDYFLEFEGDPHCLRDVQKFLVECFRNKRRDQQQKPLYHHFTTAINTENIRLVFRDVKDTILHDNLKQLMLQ

## purified Rac1(GTPγS)
  guanine nucleotide exchange or GTPase activity: No significant changes in these activities were examined
